Measured values from patent US20150307603A1 (MODIQUEST B V, published 2015).
Non-standard residues stand in square brackets, D forms with d. No end group written: not given here. Cit = NC(=O)NCCC[C@H](N)C(=O)O

What was measured:
[1] = biological target: T1, peptide no. 8 (human histone 2A) (human, also: biotin-labelled); assay: ELISA, Ab 0.0032 ug/well
T1 construct: also called peptide 8
T1 peptide: AGNAA[Cit]DNKKTR
Method: (§1) Biotin and citrulline-containing peptides derived from histone 2A were immobilized on NEUTRAVIDIN®-coated 96-well ELISA plates (0.3 μg/well). CFC-1 and CFC-0 were coated at the same concentration and served as positive and negative controls, respectively, for specific anti-citrulline reactivity and as coating controls. Non-coated wells were used to test for aspecific binding of the antibodies. […] Detection of bound anti-citrulline antibodies was performed by incubating the wells with rabbit anti-human HRP (1:2000) for 1 hour at RT followed by incubation with TMB substrate. The resulting OD (y-axis) is a measure for antibody binding.

msFibβ XG [2] = biological target: T2, msFibβ XG (mouse, also: biotin-labelled); assay: ELISA, Ab 10 ug/well
T2 construct: also called mouse fibrinogen β peptide
T2 peptide: EPTDSLDA[Cit]GHRPVDRR
Method: as §1, with “fibrinogen and vimentin” for “histone 2A”
(§2) Biotin-labeled and citrulline-containing fibrinogen and vimentin peptides (Table 5) were also tested for reactivity with the therapeutic antibodies. Peptides were coated on 96-well NEUTRAVIDIN®-ELISA plates.

huFibα XG [3] = biological target: T3, huFibα XG (human, X at position 8 = citrulline; biotin-labelled); assay: ELISA, Ab 10 ug/well
T3 peptide: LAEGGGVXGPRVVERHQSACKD
Method: as §1, with “fibrinogen and vimentin” for “histone 2A”
as §2

huFibα XH [4] = biological target: T4, huFibα XH (human, X at position 15 = citrulline; biotin-labelled); assay: ELISA, Ab 10 ug/well
T4 peptide: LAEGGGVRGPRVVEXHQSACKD
Method: as §1, with “fibrinogen and vimentin” for “histone 2A”
as §2

CFC-1 [5] = biological target: T5, CFC-1; assay: ELISA, Ab 10 ug/well
T5 construct: Positive control for anti-citrulline reactivity; also called cfc1 XG; Cfc1-peptide
Method: as §1, with “fibrinogen and vimentin” for “histone 2A”
as §2

msFibα XG [6] = biological target: T6, msFibα XG (mouse, X at position 8 = citrulline; biotin-labelled); assay: ELISA, Ab 10 ug/well
T6 peptide: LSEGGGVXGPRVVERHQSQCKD
Method: as §1, with “fibrinogen and vimentin” for “histone 2A”
as §2

msVim XS/XL [7] = biological target: T7, msVim XS/XL (mouse, also: biotin-labelled); assay: ELISA, Ab 10 ug/well
T7 construct: also called mouse vimentin peptide
T7 peptide: YVT[Cit]SSAV[Cit]L[Cit]SSVP
Method: as §1, with “fibrinogen and vimentin” for “histone 2A”
as §2

msFibα XH [8] = biological target: T8, msFibα XH (mouse, X at position 15 = citrulline; biotin-labelled); assay: ELISA, Ab 10 ug/well
T8 peptide: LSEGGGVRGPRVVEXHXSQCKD
Method: as §1, with “fibrinogen and vimentin” for “histone 2A”
as §2

[9] = biological target: T9, peptide no. 1 (human histone 2A) (human, also: biotin-labelled); assay: ELISA, Ab 0.016 ug/well
T9 construct: also called peptide 1; AAASGXGKQGGK
T9 peptide: AAASG[Cit]GKQGGK
Method: as §1

[10] = biological target: T10, peptide no. 5 (human histone 2A) (human, also: biotin-labelled); assay: ELISA, Ab 0.016 ug/well
T10 construct: also called peptide 5
T10 peptide: VGRVH[Cit]LLRKGN
Method: as §1

[11] = biological target: T11, peptide no. 6 (human histone 2A) (human, also: biotin-labelled); assay: ELISA, Ab 0.016 ug/well
T11 construct: also called peptide 6
T11 peptide: VHRLL[Cit]KGNYSE
Method: as §1

[12] = biological target: T12, peptide no. 7 (human histone 2A) (human, also: biotin-labelled); assay: ELISA, Ab 0.016 ug/well
T12 construct: also called peptide 7
T12 peptide: GNYSE[Cit]VGAGAP
Method: as §1

[13] = biological target: T13, peptide no. 11 (human histone 2A) (human, also: biotin-labelled); assay: ELISA, Ab 0.016 ug/well
T13 construct: also called peptide 11
T13 peptide: LQLAI[Cit]NDEELN
Method: as §1

[14] = biological target: T14, peptide no. 2 (human histone 2A) (human, also: biotin-labelled); assay: ELISA, Ab 0.016 ug/well
T14 construct: also called peptide 2
T14 peptide: AKAKS[Cit]SSRAGL
Method: as §1

[15] = biological target: T15, peptide no. 9 (human histone 2A) (human, also: biotin-labelled); assay: ELISA, Ab 0.016 ug/well
T15 construct: also called peptide 9
T15 peptide: DNKKT[Cit]IIPRHL
Method: as §1

[16] = biological target: T16, peptide no. 4 (human histone 2A) (human, also: biotin-labelled); assay: ELISA, Ab 0.016 ug/well
T16 construct: also called peptide 4
T16 peptide: QFPVG[Cit]VHRLLR
Method: as §1

CFC-1 [17] = biological target: T5, CFC-1; assay: ELISA, Ab 0.016 ug/well
Method: as §1

[18] = biological target: T17, peptide no. 10 (human histone 2A) (human, also: biotin-labelled); assay: ELISA, Ab 0.016 ug/well
T17 construct: also called peptide 10
T17 peptide: TRIIP[Cit]HLQLAI
Method: as §1

[19] = biological target: T18, peptide no. 12 (human histone 2A) (human, also: biotin-labelled); assay: ELISA, Ab 0.016 ug/well
T18 construct: also called peptide 12
T18 peptide: NKLLG[Cit]VTIAQG
Method: as §1

[20] = biological target: T19, peptide no. 3 (human histone 2A) (human, also: biotin-labelled); assay: ELISA, Ab 0.016 ug/well
T19 construct: also called peptide 3
T19 peptide: KSRSS[Cit]AGLQFP
Method: as §1

[21] = biological target: T1, peptide no. 8 (human histone 2A); assay: ELISA, Ab 0.016 ug/well
Method: as §1

msFibβ XG [22] = biological target: T2, msFibβ XG; assay: ELISA, Ab 0.00064 ug/well
Method: as §1, with “fibrinogen and vimentin” for “histone 2A”
as §2

huFibα XG [23] = biological target: T3, huFibα XG; assay: ELISA, Ab 0.00064 ug/well
Method: as §1, with “fibrinogen and vimentin” for “histone 2A”
as §2

huFibα XH [24] = biological target: T4, huFibα XH; assay: ELISA, Ab 0.00064 ug/well
Method: as §1, with “fibrinogen and vimentin” for “histone 2A”
as §2

CFC-1 [25] = biological target: T5, CFC-1; assay: ELISA, Ab 0.00064 ug/well
Method: as §1, with “fibrinogen and vimentin” for “histone 2A”
as §2

msFibα XG [26] = biological target: T6, msFibα XG; assay: ELISA, Ab 0.00064 ug/well
Method: as §1, with “fibrinogen and vimentin” for “histone 2A”
as §2

msVim XS/XL [27] = biological target: T7, msVim XS/XL; assay: ELISA, Ab 0.00064 ug/well
Method: as §1, with “fibrinogen and vimentin” for “histone 2A”
as §2

msFibα XH [28] = biological target: T8, msFibα XH; assay: ELISA, Ab 0.00064 ug/well
Method: as §1, with “fibrinogen and vimentin” for “histone 2A”
as §2

B1: RhmAb2.102 (antibody, human IgG1, lambda)
heavy: not shown
light: QSVLTQPPSMSAAPGQKVTISCSGSSSNIGNNYVSWYQQVPGTAPKLLIYDDNKRPSGIPGRFSGSKSATSATLGITGLQAGDEADYYCGSWDDNLSVVLFGGGTKLTVLGQPKAAPSVTLFPPSSEELQANKATLVCLISDFYPGAVTVAWKADSSPVKAGVETTTPSKQSNNKYAASSYLSLTPEQWKSHRSYSCQVTHEGSTVEKTVAPTECS
notes: Human IgG1 lambda; also called Rhm2.102
- OD [1]: 0.06 OD450
- OD (msFibβ XG [2]): 3.8 OD450
- OD (huFibα XG [3]): 2.73 OD450
- OD (huFibα XH [4]): 0.179 OD450
- OD (CFC-1 [5]): 3.89 OD450
- OD (msFibα XG [6]): 3.03 OD450
- OD (msVim XS/XL [7]): 3.69 OD450
- OD (msFibα XH [8]): 0.154 OD450
- OD [9]: 0.843 OD450
- OD [10]: 0.065 OD450
- OD [11]: 0.075 OD450
- OD [12]: 0.061 OD450
- OD [13]: 0.069 OD450
- OD [14]: 0.065 OD450
- OD [15]: 0.064 OD450
- OD [16]: 0.084 OD450
- OD (CFC-1 [17]): 1.46 OD450
- OD [18]: 0.066 OD450
- OD [19]: 0.057 OD450
- OD [20]: 0.07 OD450
- OD [21]: 0.063 OD450
- OD (msFibβ XG [22]): 0.133 OD450
- OD (huFibα XG [23]): 0.125 OD450
- OD (huFibα XH [24]): 0.124 OD450
- OD (CFC-1 [25]): 0.345 OD450
- OD (msFibα XG [26]): 0.116 OD450
- OD (msVim XS/XL [27]): 0.154 OD450
- OD (msFibα XH [28]): 0.088 OD450
